Laboratory results from paper doi:10.1101/620385.
pKd: −log10 of the molar value.

Columns and labels:
[1] = biological target: nucleosome core particle with histone H3 phosphorylated at Thr3 (human | Xenopus laevis) (UniProt P84233); assay: SPR
[2] = biological target: unmodified nucleosome core particle (human | Xenopus laevis); assay: SPR

Row | fold reduction in binding affinity against CPC LM [1] | fold reduction in binding affinity against CPC LM [2] | Substance | pKd [1] | pKd [2]
1 | 3 fold | 3 fold | CPC localisation module containing Borealin 10-end (from UniProt Q53HL2;O15392;Q9NQS7) (complex) | – | –
2 | – | – | CPC localisation module (Borealin-Survivin-INCENP 1-58) (from UniProt Q53HL2;O15392;Q9NQS7) (complex) | 6.99 | 6.53
